For series [1], the target named is T1, p53 wild-type (Homo sapiens, UniProt P04637 P04637:1-393). The series is described as follows: pulldown. As to conditions: chain copies: 4.
Series [2] addresses T1, p53 wild-type. Put plainly: pulldown; monomer alone, not shown. The settings on record: chain copies: 4.
Series [3] has as its target T1, p53 wild-type. The series is described as follows: pulldown. As to conditions: chain copies: 4; label: 32P. The text has this:
FIG. 11A. […] For each sample, the control lane (C) contained 2% of the total DNA used in the binding reaction, and was composed of two fragments: 2.9 kb vector DNA fragment, and a fragment of 40 to 80 bp containing no insert (lane 9; XhoI plus Pst1 digest of pBluescript II SK+), the 10 bp consensus monomer sequence 5′-[…]-3′ (lane 5), or multimers of this sequence arranged as indicated (lanes 1 to 4, 6, to 8). Bound DNA from the IP is shown in the B lanes.
To determine if the 10 bp consensus monomer could bind p53, a synthetic oligonucleotide (5′-[…]-3′) containing the consensus sequence was studied. Oligonucleotide duplexes were tested either directly or after cloning into plasmid vectors. […] Two variants of the consensus motif were also tested for binding. In the first, the two critical G:C bp's at position 4 and 6 of the monomer were substituted with A:T bp's (FIG. 10, synthetic oligonucleotides 1,2).

Substitutions are numbered along the chain they refer to.

T1 sequence (P04637 whole entry, one chain of several): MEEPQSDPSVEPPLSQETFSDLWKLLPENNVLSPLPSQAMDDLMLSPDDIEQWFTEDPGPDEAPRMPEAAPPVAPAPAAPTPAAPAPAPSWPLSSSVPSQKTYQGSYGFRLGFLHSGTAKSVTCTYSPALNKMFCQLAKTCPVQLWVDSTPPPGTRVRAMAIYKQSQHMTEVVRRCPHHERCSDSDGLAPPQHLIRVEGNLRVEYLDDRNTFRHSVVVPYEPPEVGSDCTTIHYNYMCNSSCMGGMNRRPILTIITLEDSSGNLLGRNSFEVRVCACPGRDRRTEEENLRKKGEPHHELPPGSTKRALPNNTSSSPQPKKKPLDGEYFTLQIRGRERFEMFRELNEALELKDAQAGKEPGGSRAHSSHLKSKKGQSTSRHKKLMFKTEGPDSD

B1: fragment A subfragment 5 (dsDNA)
DNA 1: AGTGAAAGCAGGTAGATTGCCTTGCCTGGACTTGCCTGGCCTTGCCTTTTCTTTC
DNA 2: GAAAGAAAAGGCAAGGCCAGGCAAGTCCAGGCAAGGCAATCTACCTGCTTTCACT
On to B1, for which, in series [1] (label: 32P), the binding result is “binds”.

B2: consensus monomer (dsDNA)
DNA 1: AGGCATGTCT
DNA 2: AGACATGCCT
Consider B2, for which the binding result in series [2] was “no binding”.

B3: synthetic oligo 2 (A:T-substituted dimer) (dsDNA)
DNA 1: AGGAATTCCTAGGAATTCCT
DNA 2: AGGAATTCCTAGGAATTCCT
In the case of B3, the binding result in series [1] is “no binding”.

B4: synthetic oligo 9 (cloned monomer) (dsDNA)
DNA 1: TGCAGGAATTCGATAGGCATGTCTATCAAGCTTATCGAT
DNA 2: ATCGATAAGCTTGATAGACATGCCTATCGAATTCCTGCA
Turning to B4, in series [3], the binding result is “no binding”.

B5: synthetic oligo 1 (A:T-substituted monomer) (dsDNA)
DNA 1: AGGAATTCCT
DNA 2: AGGAATTCCT
Turning to B5, the binding result in series [1] is listed as “no binding”.

B6: synthetic oligo 5 (direct half-site repeats) (dsDNA)
DNA 1: AGGCAAGGCAAGGCAAGGCA
DNA 2: TGCCTTGCCTTGCCTTGCCT
Turning to B6, the binding result in series [1] was “no binding”.

B7: synthetic oligo 6 (cloned consensus dimer) (dsDNA)
DNA 1: TGCAGGAATTCGATAGGCATGTCTAGGCATGTCTATCAAGCTTATCGAT
DNA 2: ATCGATAAGCTTGATAGACATGCCTAGACATGCCTATCGAATTCCTGCA
As to B7, the binding result in series [3] is reported as “binds”.

B8: synthetic oligo 8 (cloned consensus dimer, inverted) (dsDNA)
DNA 1: B7 DNA 1 with G17A, T22C
DNA 2: B7 DNA 2 with A28G, C33T
On to B8, for which, in series [3], the binding result is recorded as “binds”.

B9: synthetic oligo 7 (cloned consensus dimer, inverted) (dsDNA)
DNA 1: B7 DNA 1 with G27A, T32C
DNA 2: B7 DNA 2 with A18G, C23T
Turning to B9, the binding result in series [3] is “binds”.
